Measurements taken from article doi:10.1101/2021.03.26.437179 (bioRxiv, 2021).

Assays:
Experiment in all cases: pull-down
HIS-PUB26 = molecular target: T1, HIS-PUB26 (Arabidopsis thaliana, UniProt Q9FXA4 1-421)
T1 sequence (looked up): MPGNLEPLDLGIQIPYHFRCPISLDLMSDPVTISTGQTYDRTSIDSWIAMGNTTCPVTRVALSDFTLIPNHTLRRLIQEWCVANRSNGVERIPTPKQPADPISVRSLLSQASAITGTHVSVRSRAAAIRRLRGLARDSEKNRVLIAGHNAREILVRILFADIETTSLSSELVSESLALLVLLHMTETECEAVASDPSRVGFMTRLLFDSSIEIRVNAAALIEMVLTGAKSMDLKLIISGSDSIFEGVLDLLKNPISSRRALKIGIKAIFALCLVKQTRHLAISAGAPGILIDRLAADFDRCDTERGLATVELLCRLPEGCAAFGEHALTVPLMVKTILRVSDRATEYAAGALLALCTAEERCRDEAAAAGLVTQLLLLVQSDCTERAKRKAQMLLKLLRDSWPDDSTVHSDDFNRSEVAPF

GST-PUB25 = molecular target: T2, GST-PUB25 (Arabidopsis thaliana, UniProt Q9LT79 1-421)
T2 sequence (looked up): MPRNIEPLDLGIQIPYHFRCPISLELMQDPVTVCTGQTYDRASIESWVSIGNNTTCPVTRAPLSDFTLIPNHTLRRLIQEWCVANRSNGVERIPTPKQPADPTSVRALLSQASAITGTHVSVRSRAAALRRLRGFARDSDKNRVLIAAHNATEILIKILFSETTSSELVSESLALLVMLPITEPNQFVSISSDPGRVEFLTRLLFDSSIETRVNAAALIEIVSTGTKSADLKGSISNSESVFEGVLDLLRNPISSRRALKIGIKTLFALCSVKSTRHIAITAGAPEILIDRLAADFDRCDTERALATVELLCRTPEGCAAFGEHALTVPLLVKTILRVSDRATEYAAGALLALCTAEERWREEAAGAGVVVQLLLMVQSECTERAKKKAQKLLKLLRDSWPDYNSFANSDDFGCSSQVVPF

GST-PUB26 = molecular target: T3, GST-PUB26 (Arabidopsis thaliana, UniProt Q9FXA4 1-421)
T3 sequence (looked up): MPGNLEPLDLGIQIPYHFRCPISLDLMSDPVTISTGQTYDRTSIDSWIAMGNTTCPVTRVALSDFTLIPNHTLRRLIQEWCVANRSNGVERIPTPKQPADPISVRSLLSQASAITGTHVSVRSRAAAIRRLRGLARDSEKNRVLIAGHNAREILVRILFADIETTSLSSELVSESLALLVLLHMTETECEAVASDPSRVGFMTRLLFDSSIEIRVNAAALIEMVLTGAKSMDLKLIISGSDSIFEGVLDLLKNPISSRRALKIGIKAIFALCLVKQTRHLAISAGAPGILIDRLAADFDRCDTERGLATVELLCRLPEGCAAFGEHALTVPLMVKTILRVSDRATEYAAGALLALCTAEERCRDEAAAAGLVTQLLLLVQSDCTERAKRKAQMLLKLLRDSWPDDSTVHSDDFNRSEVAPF

Measured: binding result

B1: MBP-MYB6 (natural protein, Arabidopsis thaliana, UniProt Q38851 1-236, looked up)
chain: MGRSPCCEKAHTNKGAWTKEEDQRLVDYIRNHGEGCWRSLPKSAGLLRCGKSCRLRWINYLRPDLKRGNFTDDEDQIIIKLHSLLGNKWSLIAGRLPGRTDNEIKNYWNTHIKRKLLSHGIDPQTHRQINESKTVSSQVVVPIQNDAVEYSFSNLAVKPKTENSSDNGASTSGTTTDEDLRQNGECYYSDNSGHIKLNLDLTLGFGSWSGRIVGVGSSADSKPWCDPVMEARLSLL
binds: all assays above
